B1: LD78 Lys44>Glu Arg45>Gln (Mutant 2) (ligand)
chain: SLAADTPTACCFSYTSRQIPQNFIADYFETSSQCSKPGVIFLTEQSRQVCADPSEEWVQKYVSDLELSA
B2: LD78 Asp26>Ala (Mutant 10) (ligand)
chain: B1 chain with D26A, E44K, Q45R
B3: LD78 Ser1>Ala (Mutant 54) (ligand)
chain: B1 chain with S1A, E44K, Q45R
B4: LD78 Arg17>Ser (Mutant 5) (ligand)
chain: B1 chain with R17S, E44K, Q45R
B5: LD78 Glu66>Ser (Mutant 52) (ligand)
chain: B1 chain with E44K, Q45R, E66S
B6: LD78 Asp5>Ser (Mutant 37) (ligand)
chain: B1 chain with D5S, E44K, Q45R
B7: human LD78 (wild type, recombinant, expressed from a synthetic gene in yeast) (ligand)
chain: B1 chain with E44K, Q45R
B8: LD78 Ser35>Ala (Mutant 68) (ligand)
chain: B1 chain with S35A, E44K, Q45R
B9: LD78 Ser13>Ala (Mutant 62) (ligand)
chain: B1 chain with S13A, E44K, Q45R
B10: LD78 Arg17>Ser Gln18>Glu (Mutant 30) (ligand)
chain: B1 chain with R17S, Q18E, E44K, Q45R
B11: LD78 Phe12>Gln (Mutant 11) (ligand)
chain: B1 chain with F12Q, E44K, Q45R
B12: LD78 Phe28>Glu Arg47>Glu (Mutant 26) (ligand)
chain: B1 chain with F28E, E44K, Q45R, R47E
B13: LD78 Glu29>Arg (Mutant 28) (ligand)
chain: B1 chain with E29R, E44K, Q45R
B14: LD78 Lys44>Ser (Mutant 42) (ligand)
chain: B1 chain with E44S, Q45R
B15: LD78 Ile24>Ala (Mutant 38) (ligand)
chain: B1 chain with I24A, E44K, Q45R
B16: LD78 Tyr27>Ala (Mutant 66) (ligand)
chain: B1 chain with Y27A, E44K, Q45R
B17: LD78 Leu-Ser-Ala-Ser1>Pro Gly38>Ser Ser46>Gly (Mutant 35) (ligand)
chain: LSAPLAADTPTACCFSYTSRQIPQNFIADYFETSSQCSKPSVIFLTKRGRQVCADPSEEWVQKYVSDLELSA
B18: LD78 Ile19>Ala (Mutant 80) (ligand)
chain: B1 chain with I19A, E44K, Q45R
B19: LD78 Val39>Ala (Mutant 91) (ligand)
chain: B1 chain with V39A, E44K, Q45R

Where a chain is given by its changes, count along the chain named.

For the first data set, the target named is LD78 receptor on the murine stem cell line FDCP cell mix (A4 cells) (murine). In words: displacement of 125I-LD78 from FDCP-mix A4 cells; % of wild-type activity based on IC50. Background: In a radioligand displacement assay an active substance lowers the binding of a labelled ligand.
Regarding B1, the Receptor Binding % WT came to 5 % WT.
Take B2: the Receptor Binding % WT turned out to be 77.4 % WT.
Consider B3, for which the Receptor Binding % WT stood at 145 % WT.
B4: the Receptor Binding % WT was found to be 25 % WT.
Take B5: the Receptor Binding % WT is 162 % WT.
The molecule B6 returned a Receptor Binding % WT of 45 % WT.
On the same count and under the same terms, under B7 stands 100 % WT; under B8, 125 % WT; under B9, 66 % WT.
On the same count and under the same terms, next, B10: 4.2 % WT; B11: 34 % WT.
Still for that read-out and setting: next, B12: 1 % WT; B13: 7.7 % WT; B14: 18 % WT.
As to B15, the Receptor Binding % WT turned out to be 50 % WT.
Turning to B16, the Receptor Binding % WT came out at 47 % WT.
With B17, the Receptor Binding % WT was 3 % WT.

A further data set concerns the molecule itself. In words: self-association; sedimentation equilibrium AUC, 150 mM PBS pH7.4.
With B18, the binding result is “no binding (tested: 0.5 mg/ml)”.
For B19, the binding result was “no binding (tested: 0.5 mg/ml)”.

Values taken from patent US6057123, “Stem cell inhibiting proteins” (British Biotech Pharmaceuticals Limited, dated 2000).
